Consider one substance from patent US20100135951A1.

The assay addresses TRAIL-R2 (human) (UniProt O14763). As to the kind of experiment: cell-based or functional assay.

Sequence of TRAIL-R2 (human) (O14763 other isoform, or with tags, fused parts or gaps limits assumed): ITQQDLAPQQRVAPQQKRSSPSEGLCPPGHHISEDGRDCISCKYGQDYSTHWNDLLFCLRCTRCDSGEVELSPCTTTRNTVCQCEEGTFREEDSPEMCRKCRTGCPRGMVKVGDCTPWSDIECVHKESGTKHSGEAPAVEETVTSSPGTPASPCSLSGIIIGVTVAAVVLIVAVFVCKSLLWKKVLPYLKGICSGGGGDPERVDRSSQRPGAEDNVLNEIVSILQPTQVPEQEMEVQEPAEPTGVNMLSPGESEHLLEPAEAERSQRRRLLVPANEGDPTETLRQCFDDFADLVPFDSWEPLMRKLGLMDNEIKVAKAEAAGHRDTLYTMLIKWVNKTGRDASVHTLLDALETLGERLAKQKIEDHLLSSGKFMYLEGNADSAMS

For the substance TRA-8 (antibody), the cell death (ATPLITE cell viability assay) worked out at 100%.
